According to PMC4118853, “Phage Orf Family Recombinases: Conservation of Activities and Involvement of the Central Channel in DNA Binding” (PLoS ONE, 2014):
Numbering of substitutions follows the chain as printed.

Key:
[1] = target: the molecule itself; experiment: SDS-PAGE of unboiled samples; purified protein on 12.5% SDS-PAGE without boiling and without a reducing agent, Coomassie blue
[2] = target: T1, E. coli SSB (single-stranded DNA binding protein), wild type (E. coli, UniProt P0AGE0 1-178); experiment: ELISA; SSB wt or mutant (0.5 µg) bound to the microtitre plate in PBS, GST fusion added for 1 hr at 37°C, detected with HRP-anti-GST antibody, A620nm; details: both partners purified
T1 construct: also called wt SSB; source: purified as described [13]
T1 sequence (P0AGE0 whole entry, the tested form may be a part): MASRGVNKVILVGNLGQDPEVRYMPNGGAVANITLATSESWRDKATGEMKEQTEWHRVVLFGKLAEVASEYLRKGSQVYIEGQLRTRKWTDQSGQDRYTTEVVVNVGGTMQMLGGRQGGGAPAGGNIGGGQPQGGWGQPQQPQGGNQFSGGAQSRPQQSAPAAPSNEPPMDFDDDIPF

[3] = target: the molecule itself; experiment: static light scattering; 0.2 mg/ml protein in 100 mM Tris-HCl pH 7 at 25°C, Zetasizer µV; mass estimated for a spherical particle
[4] = target: T1, E. coli SSB (single-stranded DNA …); experiment: far-Western; purified SSB wt or mutant (0.5-5 µg) separated on 15% SDS-PAGE, blotted to PVDF, probed with 20-30 µg YbcN or Orf fused to MBP or GST; detected with anti-MBP or anti-GST antibodies; details: both partners purified
MBP-Orf [5] = target: T2, MBP-Orf (Bacteriophage lambda, UniProt P03765 1-146); experiment: EMSA; 5 mM EDTA; EMSA: 50 mM Tris-HCl pH 8.0, 5 mM EDTA (or 1 mM MgCl2), 1 mM DTT, 5% glycerol, 100 ug/ml BSA, on ice 15 min, 4% PAGE; anisotropy: 100 mM Tris-HCl pH 7.0, 10 nM; details: protein: recombinant; tags: N-terminal MBP; chain copies: 2; label: 5'-32P; single strand
T2 sequence: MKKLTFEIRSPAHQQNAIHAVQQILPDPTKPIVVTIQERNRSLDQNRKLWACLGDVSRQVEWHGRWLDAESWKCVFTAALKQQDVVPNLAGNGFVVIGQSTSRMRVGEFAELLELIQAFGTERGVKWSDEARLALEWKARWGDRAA

MBP-Orf R103E = target: T3, MBP-Orf R103E (Bacteriophage lambda, UniProt P03765 1-146, R103E); experiment: EMSA; 5 mM EDTA; up to 500 nM; EMSA: 50 mM Tris-HCl pH 8.0, 5 mM EDTA (or 1 mM MgCl2), 1 mM DTT, 5% glycerol, 100 ug/ml BSA, on ice 15 min, 4% PAGE; anisotropy: 100 mM Tris-HCl pH 7.0, 10 nM; details: protein: recombinant; tags: N-terminal MBP; chain copies: 2; label: 5'-32P; single strand
T3 sequence: T2 sequence with R103E

MBP-YbcN [6] = target: T4, MBP-YbcN (Escherichia coli cryptic prophage DLP12 …, UniProt Q47269 1-151); experiment: EMSA; 5 mM EDTA; lower affinity than MBP-Orf; EMSA: 50 mM Tris-HCl pH 8.0, 5 mM EDTA (or 1 mM MgCl2), 1 mM DTT, 5% glycerol, 100 ug/ml BSA, on ice 15 min, 4% PAGE; anisotropy: 100 mM Tris-HCl pH 7.0, 10 nM; details: protein: recombinant; tags: N-terminal MBP; chain copies: 2; label: 5'-32P; single strand
T4 sequence: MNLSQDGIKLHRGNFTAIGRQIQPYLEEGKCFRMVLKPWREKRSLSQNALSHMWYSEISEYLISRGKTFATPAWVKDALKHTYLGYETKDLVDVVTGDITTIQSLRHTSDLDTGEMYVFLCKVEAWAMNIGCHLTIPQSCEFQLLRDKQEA

MBP-YbcN [7] = target: T4, MBP-YbcN; experiment: EMSA; 5 mM EDTA; three complexes; EMSA: 50 mM Tris-HCl pH 8.0, 5 mM EDTA (or 1 mM MgCl2), 1 mM DTT, 5% glycerol, 100 ug/ml BSA, on ice 15 min, 4% PAGE; anisotropy: 100 mM Tris-HCl pH 7.0, 10 nM; details: protein: recombinant; tags: N-terminal MBP; chain copies: 2; label: 5'-32P on strand 1; blunt
MBP-YbcN [8] = target: T4, MBP-YbcN; experiment: EMSA; 5 mM EDTA; no preference over DS60; EMSA: 50 mM Tris-HCl pH 8.0, 5 mM EDTA (or 1 mM MgCl2), 1 mM DTT, 5% glycerol, 100 ug/ml BSA, on ice 15 min, 4% PAGE; anisotropy: 100 mM Tris-HCl pH 7.0, 10 nM; details: protein: recombinant; tags: N-terminal MBP; chain copies: 2; label: 5'-32P on strand 1; blunt, central single G:G mismatch
MBP-Orf [9] = target: T2, MBP-Orf; experiment: fluorescence anisotropy; some preference over duplex control; data varied; EMSA: 50 mM Tris-HCl pH 8.0, 5 mM EDTA (or 1 mM MgCl2), 1 mM DTT, 5% glycerol, 100 ug/ml BSA, on ice 15 min, 4% PAGE; anisotropy: 100 mM Tris-HCl pH 7.0, 10 nM; details: protein: recombinant; tags: N-terminal MBP; chain copies: 2; label: 3'-fluorescein on strand 1; blunt, central single T:G mismatch

B1: GST-YbcN (N-terminal glutathione S-transferase fusion of DLP12 YbcN) (natural protein, E. coli (cryptic prophage DLP12), UniProt Q47269 1-151, looked up)
chain: T4 sequence
notes: YbcN (orf151), Orf-family protein of E. coli cryptic prophage DLP12; insert of pLB101 moved into pGEX-6P-1; predicted monomer of the GST fusion 44.6 kDa; higher oligomers are put down to dimer-dimer combinations; also called DLP12 GST-YbcN; source: E. coli BL21 Codon Plus carrying pLB108, purified (glutathione sepharose, heparin agarose, Q sepharose); not shown: GST, N-terminal, kept
In the case of B1, the “stoichiometry N” value [1] is reported as 4 and the binding result [2] is reported as “binds”.

B2: MBP-Orf (bacteriophage λ Orf fused to maltose binding protein), wild type (natural protein)
chain: T2 sequence
notes: Orf (NinB) of bacteriophage λ, a 17 kDa protein; predicted MBP-Orf monomer 59.6 kDa; also called Orf wt; λ MBP-Orf; source: purified as described [13]
B2: binds [3]; binds [4].

B3: SS50 (ssDNA)
DNA: GGCGACGTGATCACCAGATGATTGCTAGGCATGCTTTCCGCAAGAGAAGC
B3: binds (MBP-Orf [5]); no binding (MBP-Orf R103E); binds (MBP-YbcN [6]).

B4: DS60 (dsDNA)
DNA 1: TTTGGTCTAACTTTACCGCTACTAAATGCCGCGGATTGGTTTCGCTGAATCAGGTTATTA
DNA 2: TAATAACCTGATTCAGCGAAACCAATCCGCGGCATTTAGTAGCGGTAAAGTTAGACCAAA
B4: binds (MBP-YbcN [7]).

B5: MMG:G (dsDNA)
DNA 1: B4 DNA 1
DNA 2: B4 DNA 2 with C28G
B5: binds (MBP-YbcN [8]).

B6: MMT:G-fluorescein (dsDNA)
DNA 1: B4 DNA 1
DNA 2: B4 DNA 2 with C28T
B6: binds (MBP-Orf [9]).
